Laboratory results as given in the supplement of paper PMC7877785.
± gives the uncertainty stated by the source.

Assay: self-splicing fitness, log relative to wild type (ln ratio); higher = more splicing; Tetrahymena group I intron in knt gene, E. coli kanamycin selection, DiMSum; sequences stand for … in CUCUCU…GGAGGGAAAAGUUAUCAGGCAUGCACCUGGUAGCUAGUCUUUAAACCAAUAGAUUGCAUCGGUUUAAAAGGCAAGACCGUCAAAUUGCGGGAAAGGGGUCAACAGCCGUUCAGUACCAAGUCUCAGGGGAAACUUUGAGAUGGCCUUGCAAAGGGUAUGGUAAUAAGCUGACGGACAUGGUCCUAACCACGCAGCCAAGUCCUAAGUCAACAGAUCUUCUGUUGAUAUGGAUGCAGUUCACAGACUAAAUGUCGGUCGGGGAAGAUGUAUUCUUCUCAUAAGAUAUAGUCGGACCUCUCCUUAAUGGGAGCUAGCGGAUGAAGUGAUGCAACACUGGAGCCGCUGGGAACUAAUUUGUAUGCGAAAGUAUAUUGAUUAGUUUUGGAGUACUCGUGGUCG
In short: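 The eight P1ex-region nucleotides of an intron in the knt kanamycin-resistance gene on pET-22b(+) were all randomised and the library put into E. coli BL21(DE3). Six replicate transformations were grown overnight at 37°C or 30°C on LB agar with or without 25 μg/mL kanamycin, together with 100 μg/mL carbenicillin, 50 μM IPTG and 0.2% rhamnose. Colonies were pooled and amplicon-sequenced on an Illumina HiSeq 2500. Fitness from DiMSum is the error-weighted combination of wild-type-normalised replicate fold changes, kanamycin over none.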

## GGGCAGCAAUAUUACGGCAC
30 °C
  self-splicing fitness (ln): -1.17 ± 0.16
37 °C
  self-splicing fitness (ln): -0.328 ± 0.17

## UUAAAGCAAUAUUACGGAUA
30 °C
  self-splicing fitness (ln): -0.925 ± 0.13
37 °C
  self-splicing fitness (ln): -0.197 ± 0.16

## UGAAAGCAAUAUUACGGCCA
30 °C
  self-splicing fitness (ln): -0.0769 ± 0.21
37 °C
  self-splicing fitness (ln): 0.0533 ± 0.28

## GGCGAGCAAUAUUACGUAAA
30 °C
  self-splicing fitness (ln): -2.28 ± 0.16
37 °C
  self-splicing fitness (ln): -1.06 ± 0.15

## CGGGAGCAAUAUUACGAUUU
30 °C
  self-splicing fitness (ln): -3.64 ± 0.33
37 °C
  self-splicing fitness (ln): -1.2 ± 0.24

## GUGUAGCAAUAUUACGCUCU
30 °C
  self-splicing fitness (ln): -1.72 ± 0.23
37 °C
  self-splicing fitness (ln): -0.839 ± 0.22

## GGAUAGCAAUAUUACGCAGU
30 °C
  self-splicing fitness (ln): -2.7 ± 0.18
37 °C
  self-splicing fitness (ln): -1 ± 0.12

## AUAGAGCAAUAUUACGUAAA
37 °C
  self-splicing fitness (ln): -1.57 ± 0.24

## ACUUAGCAAUAUUACGGUUG
30 °C
  self-splicing fitness (ln): -3.15 ± 0.17
37 °C
  self-splicing fitness (ln): -1.43 ± 0.15

## GGAAAGCAAUAUUACGGGAG
30 °C
  self-splicing fitness (ln): -3.54 ± 0.28
37 °C
  self-splicing fitness (ln): -1.83 ± 0.19

## GACGAGCAAUAUUACGGGUU
30 °C
  self-splicing fitness (ln): -3.77 ± 0.18
37 °C
  self-splicing fitness (ln): -2.75 ± 0.21

## CUGAAGCAAUAUUACGAUUU
30 °C
  self-splicing fitness (ln): -3.34 ± 0.2
37 °C
  self-splicing fitness (ln): -1.6 ± 0.24

## CAUAAGCAAUAUUACGCACG
30 °C
  self-splicing fitness (ln): -1.64 ± 0.1
37 °C
  self-splicing fitness (ln): -0.299 ± 0.13

## AGUCAGCAAUAUUACGGUCA
30 °C
  self-splicing fitness (ln): -0.726 ± 0.11
37 °C
  self-splicing fitness (ln): -0.323 ± 0.1

## ACUGAGCAAUAUUACGUGCA
30 °C
  self-splicing fitness (ln): -2.8 ± 0.2
37 °C
  self-splicing fitness (ln): -2.36 ± 0.25

## GGUCAGCAAUAUUACGCUGA
30 °C
  self-splicing fitness (ln): -3.21 ± 0.44
37 °C
  self-splicing fitness (ln): -1.95 ± 0.32

## UAGAAGCAAUAUUACGGAGC
37 °C
  self-splicing fitness (ln): -3.93 ± 0.46

## UCCUAGCAAUAUUACGGGCA
30 °C
  self-splicing fitness (ln): -0.22 ± 0.085
37 °C
  self-splicing fitness (ln): 0.2 ± 0.097

## GCACAGCAAUAUUACGGACC
30 °C
  self-splicing fitness (ln): -1.43 ± 0.11
37 °C
  self-splicing fitness (ln): 0.156 ± 0.14

## AGCCAGCAAUAUUACGAAAU
30 °C
  self-splicing fitness (ln): -3.02 ± 0.11
37 °C
  self-splicing fitness (ln): -2.17 ± 0.13

## AUAUAGCAAUAUUACGGUUA
30 °C
  self-splicing fitness (ln): -1.12 ± 0.13
37 °C
  self-splicing fitness (ln): -0.372 ± 0.12

## AUGGAGCAAUAUUACGGUCG
30 °C
  self-splicing fitness (ln): -2.63 ± 0.18
37 °C
  self-splicing fitness (ln): -0.839 ± 0.12

## CAAGAGCAAUAUUACGGUUA
30 °C
  self-splicing fitness (ln): -2.21 ± 0.15
37 °C
  self-splicing fitness (ln): -2.08 ± 0.18

## ACUAAGCAAUAUUACGAGUA
30 °C
  self-splicing fitness (ln): -2.35 ± 0.17
37 °C
  self-splicing fitness (ln): -1.78 ± 0.18

## CCAAAGCAAUAUUACGUAAU
30 °C
  self-splicing fitness (ln): -4.12 ± 0.18
37 °C
  self-splicing fitness (ln): -2.62 ± 0.19

## GCACAGCAAUAUUACGUAAA
30 °C
  self-splicing fitness (ln): -0.808 ± 0.057
37 °C
  self-splicing fitness (ln): 0.219 ± 0.077

## CAGGAGCAAUAUUACGCUCG
30 °C
  self-splicing fitness (ln): -3.55 ± 0.34
37 °C
  self-splicing fitness (ln): -1.37 ± 0.33

## UUUUAGCAAUAUUACGAAUG
30 °C
  self-splicing fitness (ln): -1.04 ± 0.077
37 °C
  self-splicing fitness (ln): -0.0853 ± 0.096

## UAGUAGCAAUAUUACGCUGG
30 °C
  self-splicing fitness (ln): -1.13 ± 0.099
37 °C
  self-splicing fitness (ln): -1.34 ± 0.15

## UGAUAGCAAUAUUACGCUUC
37 °C
  self-splicing fitness (ln): -2.45 ± 0.35

## GUGAAGCAAUAUUACGACUA
30 °C
  self-splicing fitness (ln): -0.0623 ± 0.096
37 °C
  self-splicing fitness (ln): 0.462 ± 0.14

## UGCGAGCAAUAUUACGCUGA
30 °C
  self-splicing fitness (ln): -2.35 ± 0.27
37 °C
  self-splicing fitness (ln): -2.28 ± 0.27

## GGCGAGCAAUAUUACGCGUC
37 °C
  self-splicing fitness (ln): -2.65 ± 0.39

## AUUCAGCAAUAUUACGAUAA
30 °C
  self-splicing fitness (ln): -0.72 ± 0.086
37 °C
  self-splicing fitness (ln): -0.295 ± 0.099

## UUCGAGCAAUAUUACGUUCG
30 °C
  self-splicing fitness (ln): -3.75 ± 0.24
37 °C
  self-splicing fitness (ln): -2.32 ± 0.27

## UACCAGCAAUAUUACGAUCA
30 °C
  self-splicing fitness (ln): -0.119 ± 0.07
37 °C
  self-splicing fitness (ln): -0.323 ± 0.09

## GGGAAGCAAUAUUACGGACG
30 °C
  self-splicing fitness (ln): -0.846 ± 0.11
37 °C
  self-splicing fitness (ln): -0.443 ± 0.13

## CAGUAGCAAUAUUACGAUGA
30 °C
  self-splicing fitness (ln): -1.92 ± 0.24
37 °C
  self-splicing fitness (ln): 0.175 ± 0.18

## UGCUAGCAAUAUUACGUUAC
37 °C
  self-splicing fitness (ln): -1.91 ± 0.23
